Series [1] in a line: Dicamba decarboxylation activity of computationally designed protein variants. The following applies: for Dicamba Decarboxylase Activity: native protein or designed variant versus parent; for Percent Activity Improvement Over Parent (%): parent SEQ ID NO:1 or SEQ ID NO:41 listed as 100.
The nature of series [2]: 14C assay with IPTG-induced recombinant E. coli cells (14CO2 capture from [14C]-carboxyl-labeled dicamba). The settings on record: for Enzymatic Detection level: dicamba decarboxylation activity of the protein of the given SEQ ID NO; for Dicamba Decarboxylase Activity: IPTG-induced recombinant E. coli cells, [14C]-carboxyl-labeled dicamba, 14CO2 capture.
The mark [3] stands for this setting: Table 4, variants designed to introduce activity.
[4] abbreviates: Table 5, designed variants with improved activity.

Here are results for 14 molecules from patent US20140287419A1, “Compositions Having Dicamba Decarboxylase Activity and Methods of Use” (priority 2013, published 2014).

Numbering of substitutions follows the chain as printed. Entries after “also recorded” stand apart in the source; their conditions may differ.

B1: SEQ ID NO:100: 4-Oxalomesaconate hydratase, Reinekea blandensis MED297 (protein, listed as Reinekea blandensis)
chain: MAIIDCHGHYTTTPKGVEDYRNAQKAAVAKDPSFKGEKGQVVVSDDEIRESIENNQLKMQRERGTDLTIFSPRASWMGHHIGNEYTSQFWTEHQNDLIRRVCDLFPKNFAPVAQLPQSPGVDPAKSVPEIVRTVEQMGFIGINLNPDPSGGYWKDTSLADRAFYPIYEKMVEYDIPAMIHVSAACNDCFHTTGSHYLGADTTGFQQLIMSDVFKDFPSLKIIIPHGGGAVPYHWGRFRGLMQDQGYAPLEESALKNIYFDTCVYHQRGIDLLLDIVPTQNILFASEMIGAVRGIDPETGHNFDDTKRYIDNNTALNAEEKAMIFEGNARRVFSRLKTD
B1: in series [1], the “Dicamba Decarboxylase Activity” value is “Neither of the native proteins have dicamba decarboxylase activity”.

B2: 122 (protein)
chain: B1 chain with A74S, S75T, W76A, M77G, V181P, S182R, A183N, Y196A, E286D
modifications: Dicamba decarboxylase variant clone DC.12.103
With B2, the “Dicamba Decarboxylation activity” value in series [1] (setting [3]) is recorded as “Yes”. The “Enzymatic Detection level” value in series [2] is listed as “High”.

B3: 100 (protein, listed as Reinekea blandensis)
chain: B1 chain
Take B3: the “Dicamba Decarboxylation activity” value in series [1] (setting [3]) is “No”. In series [2], the “Dicamba Decarboxylase Activity” value is recorded as “No” and the “Enzymatic Detection level” value was “No”.

B4: 120 (protein)
chain: MAIIDCHGHYTTTPKGVETYRNAQKAAVAKDPSFKYEKGQVVVSDDEIRESIENNQLKMQRERGTDLTIFSPRSTAGGHHIGNEYTSQFWTEHQNDLIRRVCDLFPKNFAPVAQLPQSPGVDPAKSVPEIVRTVEQMGFIGINLNPDPSGGYWKDTSLADRAFYPIYEKMVEYDIPAMIHPRNACNDCFHTTGSHALGADTTGFQQLIMSDVFKDFPSLKIIIPHGGGAVPYHWGRFRGLMQDQGYAPLEESALKNIYFDTCVYHQRGIDLLLDIVPTQNILFASEMIGAVRGIDAETGHNFDDTKRYIDNNTALNAEEKAMIFEGNARRVFSRLKTD
modifications: Dicamba decarboxylase variant clone DC.12.002
Take B4: the “Dicamba Decarboxylation activity” value in series [1] (setting [3]) is “Yes”. Moreover, in series [2], the “Enzymatic Detection level” value was “High”.

B5: 118 (protein)
chain: MAKKPRIDMHSHFFPRISEQEAAKFDANHAPWLQVSAKGDTGSIMMGKNNFQPVYQALWDPAFRIEEMDAQGVDVQVTCATPVMFGYTWEANKAAQWAERMNDFALEFAAHNPQRIKVLAQVPLQDLDLACKEASRAVAAGHLGIQIGNHLGDKDLDDATLEAFLTHCANEDIPILVHGTDMMGGQRMKKWGLPWLVALAAEVQLAILSLILSGAFERIPKSLKICFSHGGGSFAFLLGLVDEAWRHVDIVREDCPRPPSEYVDRFFVDSVGNPGALELLVSVMGEDRVMLGSDYPHTTGEQKIGGLVLSSNLGESAKDKIISGNASKFFNINV
modifications: Dicamba decarboxylase variant clone DC.5.033
B5: in series [1] (setting [3]), the “Dicamba Decarboxylation activity” value is on record as “Yes”. Also, in series [2], the “Enzymatic Detection level” value is “High”.

B6: 119 (protein)
chain: B5 chain with T180W, P194Y, L199H, A200H, L237T, L240W, H297L
modifications: Dicamba decarboxylase variant cloneDC.5.034
For B6, the “Dicamba Decarboxylation activity” value in series [1] (setting [3]) is given as “Yes”. The “Enzymatic Detection level” value in series [2] is listed as “High”.

B7: 111 (protein)
chain: MAQGKVALEEHFAIPETLQDSMGFVPGDYWKELMHRLLDIQDTRLKLMDAHGIETMILSLNAPAVQAIPDRRKAIEIARRANDVLAEECAKRPDRFLAFAALPLQDPDAATEELQRCVNDLGFVGALVNGFSQEGDGQTPLYYDLPQYRPFWGEVEKLDVPFYLHPRNPLPQDSRIYDGHPWLLGPTWAFAQETAVHALRLMASGLFDEHPRLNIILGHMGEGLPYMMWRIDHRMAWIKLPPRYPAKRRFMDYFNENFHITTSGNFRTQTLIDAILEIGADRILFSTDWPFENIDHASDWFNATSIAEADRVKIGRTNARRLFKLDGA
modifications: Dicamba decarboxylase variant clone DC.4.112
On to B7, for which the “Dicamba Decarboxylation activity” value in series [1] (setting [4]) is given as “Yes”. Further, in series [1], the “Percent Activity Improvement Over Parent (%)” value amounted to 237%. For the same molecule, in series [2], the “Enzymatic Detection level” value was “High”.

B8: 112 (protein)
chain: B7 chain with M22A, M34V, M235V, I238V
modifications: Dicamba decarboxylase variant clone DC.4.113
Consider B8, for which, in series [1] (setting [4]), the “Dicamba Decarboxylation activity” value is “Yes”. In addition, the “Percent Activity Improvement Over Parent (%)” value in series [1] was 219%. For the same molecule, the “Enzymatic Detection level” value in series [2] is “High”.

B9: 41 (protein, listed as Polaromonas sp.)
chain: MANGKIALEEHFATEETLMDSAGFVPDKDWPELRSRLLDIQDRRVRLMDEHGIETMILSLNAPAVQAIADSTRANETARRANDFLAEQVAKQPTRFRGFAALPMQDPELAARELERCVKELGFVGALVNGFSQDNRSAVPLYYDMAQYWPFWETVQALDVPFYLHPRNPLPSDARIYDGHAWLLGPTWAFGQETAVHALRLMGSGLFDKYPALKIILGHMGEGLPYSMWRIDHRNAWIKTTPKYPAKRKIVDYFNENFYLTTSGNFRTQTLIDAILEIGADRILFSTDWPFENIDHAADWFENTSISEADRKKIGWGNAQNLFKLNR
Take B9: the “Dicamba Decarboxylation activity” value in series [1] (setting [4]) is listed as “Yes”. For the same molecule, the “Percent Activity Improvement Over Parent (%)” value in series [1] worked out at 100%. Moreover, in series [2], the “Dicamba Decarboxylase Activity” value is “High” and the “Enzymatic Detection level” value is reported as “High”.

B10: 121 (protein)
chain: MAIIDCHGHYTTTPKGVEDYRNAQKAAVAKDPSFKGEKGQVVVSDDEIRESIENNQLKMQRERGTDLTIFSPRWDAGGHHIGNEYTSQFWTEHQNDLIRRVCDLFPKNFAPVAQLPQSPGVDPAKSVPEIVRTVEQMGFIGINLNPDPSGGYWKDTSLADRAFYPIYEKMVEYDIPAMIHPRLACNACFHTGLSVGLGADTTGFQQLIMSDVFKDFPSLKIIIPHGGGAVPYHWGRFRGLMQDQGYAPLEESALKNIYFDTCVYHQRGIDLLLDIVPTQNILFASEMIGAVRGIDPETGHNFDDTKRYIDNNTALNAEEKAMIFEGNARRVFSRLKTD
modifications: Dicamba decarboxylase variant clone DC.12.014
As to B10, the “Dicamba Decarboxylation activity” value in series [1] (setting [3]) is given as “Yes”. The “Enzymatic Detection level” value in series [2] was “High”.

B11: SEQ ID NO:95: Alpha-Amino-Beta-Carboxymuconate-Epsilon-Semialdehyde-Decarboxylase, Pseudomonas fluorescens (protein, listed as Pseudomonas fluorescens)
chain: MAKKPRIDMHSHFFPRISEQEAAKFDANHAPWLQVSAKGDTGSIMMGKNNFRPVYQALWDPAFRIEEMDAQGVDVQVTCATPVMFGYTWEANKAAQWAERMNDFALEFAAHNPQRIKVLAQVPLQDLDLACKEASRAVAAGHLGIQIGNHLGDKDLDDATLEAFLTHCANEDIPILVHPWDMMGGQRMKKWMLPWLVAMPAETQLAILSLILSGAFERIPKSLKICFGHGGGSFAFLLGRVDNAWRHRDIVREDCPRPPSEYVDRFFVDSAVFNPGALELLVSVMGEDRVMLGSDYPFPLGEQKIGGLVLSSNLGESAKDKIISGNASKFFNINV
Regarding B11, the “Dicamba Decarboxylase Activity” value in series [1] is “not active for dicamba decarboxylation; also recorded: Neither of the native proteins have dicamba decarboxylase activity”.

B12: 117 (protein)
chain: B11 chain with W195V, M199A, T203V, G228A, H229G, R240I, N243L, A271L, L300T
modifications: Dicamba decarboxylase variant clone DC.5.008
B12: the “Dicamba Decarboxylation activity” value in series [1] (setting [3]) is “Yes”. Besides, the “Enzymatic Detection level” value in series [2] was “High”.

B13: 95 (protein, listed as Pseudomonas fluorescens)
chain: B11 chain
Turning to B13, the “Dicamba Decarboxylation activity” value in series [1] (setting [3]) is “No”. In series [2], the “Dicamba Decarboxylase Activity” value is “No” and the “Enzymatic Detection level” value is given as “No”.

B14: SEQ ID NO: 116 (protein)
chain: MAQGKVALEEHFAIPETLQDAAGFVPGDYWKELQHRLLDIQDRRVRLMDEHGIETMILSLNAPAVQAIADSTRANETARRANDFLAEQVAKQPTRFRGFAALPMQDPELAARELERCVKELGFVGALVNGFSQDNRSAVPLYYDMAQYWPFWETVQALDVPFYLHPRNPLPSDARIYDGHAWLLGPTWAFGQETAVHALRLMGSGLFDKYPALKIILGHMGEGLPYSMWRIDHRNAWIKTTPKYPAKRKIVDYFNENFYLTTSGNFRTQTLIDAILEIGADRILFSTDWPFENIDHAADWFENTSISEADRKKIGWGNAQNLFKLNR
modifications: Dicamba decarboxylase variant clone DC.30.007
In the case of B14, the “Dicamba Decarboxylase Activity” value in series [1] is “improved dicamba decarboxylase activity”.
